# The MegaScale stability set (Tsuboyama et al. 2023)
# B1: EEHEE_rd4_0469 (parent)
# chain: ITIHVNGVTYHFDNPEEAEKFAQKMAKTYQLKMEIHNGEFHME
# Variants of: B1
# Assay: folding stability dG (cDNA display proteolysis); higher = more stable
# Conditions: PBS, room temperature
row,Variant,folding stability dG
1,ITIHVNGVTYHFDNPEEAEGFAQKMAKTYQLKMEIHNGEFHME [K20G],0.79 kcal/mol
2,ITIHVNGVTYHFDNPEEAEWFAQKMAKTYQLKMEIHNGEFHME [K20W],1.02 kcal/mol
3,ITIHVNGVTYHFDNPEEAERFAQKMAKTYQLKMEIHNGEFHME [K20R],1.17 kcal/mol
4,ITIHVNGVTYHFDNPEEAEVFAQKMAKTYQLKMEIHNGEFHME [K20V],1.17 kcal/mol
5,ITIHVNGVTYHFDNPEEAEMFAQKMAKTYQLKMEIHNGEFHME [K20M],1.15 kcal/mol
6,ITIHVNGVTYHFDNPEEAEQFAQKMAKTYQLKMEIHNGEFHME [K20Q],1.17 kcal/mol
7,ITIHVNGVTYHFDNPEEAELFAQKMAKTYQLKMEIHNGEFHME [K20L],1.23 kcal/mol
8,ITIHVNGVTYHFDNPEEAENFAQKMAKTYQLKMEIHNGEFHME [K20N],1.02 kcal/mol
9,ITIHVNGVTYHFDNPEEAEIFAQKMAKTYQLKMEIHNGEFHME [K20I],1.18 kcal/mol
10,ITIHVNGVTYHFDNPEEAEYFAQKMAKTYQLKMEIHNGEFHME [K20Y],1.09 kcal/mol
11,ITIHVNGVTYHFDNPEEAEPFAQKMAKTYQLKMEIHNGEFHME [K20P],0.383 kcal/mol
12,ITIHVNGVTYHFDNPEEAEHFAQKMAKTYQLKMEIHNGEFHME [K20H],1.15 kcal/mol
13,ITIHVNGVTYHFDNPEEAETFAQKMAKTYQLKMEIHNGEFHME [K20T],1.19 kcal/mol
14,ITIHVNGVTYHFDNPEEAESFAQKMAKTYQLKMEIHNGEFHME [K20S],1.15 kcal/mol
15,ITIHVNGVTYHFDNPEEAEKFWQKMAKTYQLKMEIHNGEFHME [A22W],0.941 kcal/mol
16,ITIHVNGVTYHFDNPEEAEKFYQKMAKTYQLKMEIHNGEFHME [A22Y],1.01 kcal/mol
17,ITIHVNGVTYHFDNPEEAEKFRQKMAKTYQLKMEIHNGEFHME [A22R],1.06 kcal/mol
18,ITIHVNGVTYHFDNPEEAEKFEQKMAKTYQLKMEIHNGEFHME [A22E],0.335 kcal/mol
19,ITIHVNGVTYHFDNPEEAEKFMQKMAKTYQLKMEIHNGEFHME [A22M],1.19 kcal/mol
20,ITIHVNGVTYHFDNPEEAEKFCQKMAKTYQLKMEIHNGEFHME [A22C],1.76 kcal/mol

row,Variant,folding stability dG
1,ITIHVNGVTYHFDNPEEAEKFNQKMAKTYQLKMEIHNGEFHME [A22N],0.367 kcal/mol
2,ITIHVNGVTYHFDNPEEAEKFKQKMAKTYQLKMEIHNGEFHME [A22K],0.843 kcal/mol
3,ITIHVNGVTYHFDNPEEAEKFTQKMAKTYQLKMEIHNGEFHME [A22T],0.747 kcal/mol
4,ITIHVNGVTYHFDNPEEAEKFVQKMAKTYQLKMEIHNGEFHME [A22V],1.4 kcal/mol
5,ITIHVNGVTYHFDNPEEAEKFIQKMAKTYQLKMEIHNGEFHME [A22I],1.46 kcal/mol
6,ITIHVNGVTYHFDNPEEAEKFLQKMAKTYQLKMEIHNGEFHME [A22L],0.879 kcal/mol
7,ITIHVNGVTYHFDNPEEAEKFQQKMAKTYQLKMEIHNGEFHME [A22Q],0.662 kcal/mol
8,ITIHVNGVTYHFDNPEEAEKFSQKMAKTYQLKMEIHNGEFHME [A22S],0.704 kcal/mol
9,ITIHVNGVTYHFDNPEEAEKFDQKMAKTYQLKMEIHNGEFHME [A22D],-0.261 kcal/mol
10,ITIHVNGVTYHFDNPEEAEKFHQKMAKTYQLKMEIHNGEFHME [A22H],0.587 kcal/mol
11,ITIHVNGVTYHFDNPEEAEKFFQKMAKTYQLKMEIHNGEFHME [A22F],0.747 kcal/mol
12,ITIHVNGVTYHFDNPEEAEKFGQKMAKTYQLKMEIHNGEFHME [A22G],0.3 kcal/mol
13,ITIHVNGVTYHFDNPEEAEKCAQKMAKTYQLKMEIHNGEFHME [F21C],1.38 kcal/mol
14,ITIHVNGVTYHFDNPEEAEKEAQKMAKTYQLKMEIHNGEFHME [F21E],-0.052 kcal/mol
15,ITIHVNGVTYHFDNPEEAEKKAQKMAKTYQLKMEIHNGEFHME [F21K],-0.758 kcal/mol
16,ITIHVNGVTYHFDNPEEAEKMAQKMAKTYQLKMEIHNGEFHME [F21M],0.206 kcal/mol
17,ITIHVNGVTYHFDNPEEAEKLAQKMAKTYQLKMEIHNGEFHME [F21L],0.173 kcal/mol
18,ITIHVNGVTYHFDNPEEAEKQAQKMAKTYQLKMEIHNGEFHME [F21Q],-0.188 kcal/mol
19,ITIHVNGVTYHFDNPEEAEKIAQKMAKTYQLKMEIHNGEFHME [F21I],0.089 kcal/mol
20,ITIHVNGVTYHFDNPEEAEKNAQKMAKTYQLKMEIHNGEFHME [F21N],-0.383 kcal/mol

row,Variant,folding stability dG
1,ITIHVNGVTYHFDNPEEAEKTAQKMAKTYQLKMEIHNGEFHME [F21T],-0.122 kcal/mol
2,ITIHVNGVTYHFDNPEEAEKRAQKMAKTYQLKMEIHNGEFHME [F21R],-0.383 kcal/mol
3,ITIHVNGVTYHFDNPEEAEKWAQKMAKTYQLKMEIHNGEFHME [F21W],1.2 kcal/mol
4,ITIHVNGVTYHFDNPEEAEKSAQKMAKTYQLKMEIHNGEFHME [F21S],-0.647 kcal/mol
5,ITIHVNGVTYHFDNPEEAEKVAQKMAKTYQLKMEIHNGEFHME [F21V],0.092 kcal/mol
6,ITIHVNGVTYHFDNPEEAEKDAQKMAKTYQLKMEIHNGEFHME [F21D],-0.653 kcal/mol
7,ITIHVNGVTYHFDNPEEAEKAAQKMAKTYQLKMEIHNGEFHME [F21A],0.133 kcal/mol
8,ITIHVNGVTYHFDNPEEAEKHAQKMAKTYQLKMEIHNGEFHME [F21H],0.061 kcal/mol
9,ITIHVNGVTYHFDNPEEAEKYAQKMAKTYQLKMEIHNGEFHME [F21Y],0.564 kcal/mol
10,ITIHVNGVTYHFDNPEEAEKGAQKMAKTYQLKMEIHNGEFHME [F21G],-0.582 kcal/mol
11,ITIHVNGVTYHFDNPEEAEKFAKKMAKTYQLKMEIHNGEFHME [Q23K],1.07 kcal/mol
12,ITIHVNGVTYHFDNPEEAEKFAHKMAKTYQLKMEIHNGEFHME [Q23H],0.988 kcal/mol
13,ITIHVNGVTYHFDNPEEAEKFAAKMAKTYQLKMEIHNGEFHME [Q23A],1.24 kcal/mol
14,ITIHVNGVTYHFDNPEEAEKFADKMAKTYQLKMEIHNGEFHME [Q23D],0.989 kcal/mol
15,ITIHVNGVTYHFDNPEEAEKFAEKMAKTYQLKMEIHNGEFHME [Q23E],1.14 kcal/mol
16,ITIHVNGVTYHFDNPEEAEKFAFKMAKTYQLKMEIHNGEFHME [Q23F],1.19 kcal/mol
17,ITIHVNGVTYHFDNPEEAEKFAGKMAKTYQLKMEIHNGEFHME [Q23G],0.566 kcal/mol
18,ITIHVNGVTYHFDNPEEAEKFACKMAKTYQLKMEIHNGEFHME [Q23C],2.52 kcal/mol
19,ITIHVNGVTYHFDNPEEAEKFAIKMAKTYQLKMEIHNGEFHME [Q23I],1.27 kcal/mol
